Reference: patent US20100292443A1 (published 2010)

Target: T1, protein A (immobilized on a protein A column) (UniProt P38507 37-327)
T1 construct: Other paragraphs mention recombinant protein A on agarose and ProSep-vA-Ultra resin; also called protein A resin
Test: protein A column equilibrated with 20 mM TRIS pH 8, after papain digestion
Method: Purified, intact anti-S1P IgG was digested with activated papain (incubated 10 mg/ml papain in 5.5 mM cysteine-HCL, 1 mM EDTA, 70 μM 2-mercaptoethanol for 0.5 hours at 37° C.) in digestion buffer (100:1 LT1009:papain in 50 mM sodium phosphate pH 7.2, 2 mM EDTA). After 2 hours at 37° C., the protease reaction was quenched with 50 mM iodoacetamide, dialyzed against 20 mM TRIS pH 9, and loaded onto 2×5 ml HiTrap Q columns. The bound protein was eluted with a linear gradient of 20 mM TRIS pH 8, 0.5 M NaCl and collected in 4 ml fractions. The fractions containing the anti-S1P Fab fragment were pooled and loaded onto a protein A column equilibrated with 20 mM TRIS pH 8. The intact antibody and the Fc fragment bound to the resin, while the Fab fragment was present in the flow through fraction. The Fab fragment was concentrated using a centricon-YM30 centrifugal concentrator (Millipore, Cat No 4209), dialyzed against 25 mM HEPES pH 7, and stored at 4° C.

B1: LT1009 Fab fragment (anti-S1P Fab fragment, from papain digestion) (Fab)
heavy: EVQLVQSGAEVKKPGESLKISCQSFGYIFIDHTIHWMRQMPGQGLEWMGAISPRHDITKYNEMFRGQVTISADKSSSTAYLQWSSLKASDTAMYFCARGGFYGSTIWFDFWGQGTMVTVSSASTKGPSVFPLAPSSKSTSGGTAALGCLVKDYFPEPVTVSWNSGALTSGVHTFPAVLQSSGLYSLSSVVTVPSSSLGTQTYICNVNHKPSNTKVDKRVEPKSCDKTH
light: ETTVTQSPSFLSASVGDRVTITCITTTDIDDDMNWFQQEPGKAPKLLISEGNILRPGVPSRFSSSGYGTDFTLTISKLQPEDFATYYCLQSDNLPFTFGQGTKLEIKRTVAAPSVFIFPPSDEQLKSGTASVVCLLNNFYPREAKVQWKVDNALQSGNSQESVTEQDSKDSTYSLSSTLTLSKADYEKHKVYACEVTHQGLSSPVTKSFNRGEC
  binding result: no binding
